The target in test [1] is T1, cynomolgus monkey latent myostatin (cynomolgus monkey, UniProt Q95J86 25-266; Q95J86 267-375, limits assumed).
T1 construct: also called cyno latent myostatin
T1 sequence 1: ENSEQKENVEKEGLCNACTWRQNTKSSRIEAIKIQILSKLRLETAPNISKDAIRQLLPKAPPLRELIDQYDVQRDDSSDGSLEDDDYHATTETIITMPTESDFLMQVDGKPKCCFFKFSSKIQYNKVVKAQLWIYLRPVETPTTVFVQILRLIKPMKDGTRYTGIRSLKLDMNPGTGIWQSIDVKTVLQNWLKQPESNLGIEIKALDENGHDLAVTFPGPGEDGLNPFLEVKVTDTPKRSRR
T1 sequence 2: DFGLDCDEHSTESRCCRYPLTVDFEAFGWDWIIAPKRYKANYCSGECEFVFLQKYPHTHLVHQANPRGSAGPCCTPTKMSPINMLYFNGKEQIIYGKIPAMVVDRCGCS
Kind of test: SPR 37C.

The target in a further test is T2, human latent myostatin (human, UniProt O14793 25-266; O14793 267-375).
T2 construct: non-covalent complex of two propeptides and the mature homodimer; also called human myostatin latent form
T2 sequence 1: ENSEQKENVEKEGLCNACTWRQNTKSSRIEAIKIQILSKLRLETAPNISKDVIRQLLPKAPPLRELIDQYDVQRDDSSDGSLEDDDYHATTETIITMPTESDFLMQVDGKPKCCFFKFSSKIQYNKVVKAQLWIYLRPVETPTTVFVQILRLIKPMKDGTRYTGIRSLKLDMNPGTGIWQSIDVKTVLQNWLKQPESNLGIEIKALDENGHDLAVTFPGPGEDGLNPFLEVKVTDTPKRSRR
T2 sequence 2: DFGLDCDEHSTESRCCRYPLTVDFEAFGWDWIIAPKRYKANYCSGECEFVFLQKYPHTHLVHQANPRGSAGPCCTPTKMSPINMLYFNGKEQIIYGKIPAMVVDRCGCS
As to the kind of experiment: SPR 37C pH7.4.

Another test has as its target T3, mouse latent myostatin (mouse, UniProt O08689 26-267; O08689 268-376).
T3 sequence 1: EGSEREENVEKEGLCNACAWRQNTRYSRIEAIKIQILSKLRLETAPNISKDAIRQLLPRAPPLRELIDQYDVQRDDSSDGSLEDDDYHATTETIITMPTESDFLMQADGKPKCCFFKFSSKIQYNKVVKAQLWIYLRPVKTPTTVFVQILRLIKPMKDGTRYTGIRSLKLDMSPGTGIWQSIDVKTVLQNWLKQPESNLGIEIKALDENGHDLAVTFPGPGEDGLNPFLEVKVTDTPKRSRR
T3 sequence 2: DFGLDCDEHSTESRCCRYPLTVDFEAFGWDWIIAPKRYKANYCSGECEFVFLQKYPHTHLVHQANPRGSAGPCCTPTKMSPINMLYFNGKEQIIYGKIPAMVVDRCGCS
Kind of test: SPR 37C pH7.4.

The target in test [2] is T1, cynomolgus monkey latent myostatin. As to the kind of experiment: SPR 37C pH5.8; pH 5.8.
The target is the same in test [3]. As to the kind of experiment: SPR 37C pH7.4; pH 7.4.
For another test, the target named is T4, GST-hMSTN 61-160aa (human, UniProt O14793 61-160).
T4 construct: not shown: GST tag of pGEX4.1 vector
T4 sequence: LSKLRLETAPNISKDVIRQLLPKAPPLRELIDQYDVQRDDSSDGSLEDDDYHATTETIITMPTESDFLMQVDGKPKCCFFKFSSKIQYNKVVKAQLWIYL
Kind of test: Western blot. (In western blotting, separated proteins are transferred to a membrane and probed.)

Another test addresses T5, GST-hMSTN 81-180aa (human, UniProt A1C2U3 81-180 (Pongo pygmaeus entry)).
T5 construct: not shown: GST tag of pGEX4.1 vector
T5 sequence: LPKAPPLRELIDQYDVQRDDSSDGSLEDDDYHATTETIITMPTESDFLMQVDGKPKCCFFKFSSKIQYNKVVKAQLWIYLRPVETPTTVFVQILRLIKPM
Kind of test: Western blot.

The target in a further test is T6, GST-hMSTN 101-200aa (human, UniProt A1C2U3 101-200 (Pongo pygmaeus entry)).
T6 construct: not shown: GST tag of pGEX4.1 vector
T6 sequence: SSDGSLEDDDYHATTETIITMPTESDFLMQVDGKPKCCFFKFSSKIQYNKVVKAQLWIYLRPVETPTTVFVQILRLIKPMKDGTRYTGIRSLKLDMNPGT
As to the kind of experiment: Western blot.

The next test has as its target T7, GST-hMSTN 121-220aa (human, UniProt A1C2U3 121-220 (Pongo pygmaeus entry)).
T7 construct: not shown: GST tag of pGEX4.1 vector
T7 sequence: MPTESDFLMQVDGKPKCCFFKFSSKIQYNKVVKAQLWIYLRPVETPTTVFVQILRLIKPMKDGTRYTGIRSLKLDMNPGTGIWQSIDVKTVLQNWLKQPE
Kind of test: Western blot.

For a further test, the target named is T8, GST-hMSTN 141-241aa (human, UniProt A1C2U3 141-241 (Pongo pygmaeus entry)).
T8 construct: not shown: GST tag of pGEX4.1 vector
T8 sequence: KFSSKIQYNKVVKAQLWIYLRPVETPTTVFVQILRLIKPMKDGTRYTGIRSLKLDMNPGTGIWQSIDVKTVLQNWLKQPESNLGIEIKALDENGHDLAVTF
As to the kind of experiment: Western blot.

From EP4755449A2 (CHUGAI SEIYAKU KABUSHIKI KAISHA, dated 2026) come the findings set out here.

For orientation: Kd means a measure of binding affinity in units of concentration.

B1: MS_M103205H1186-SG1/M103202L889-SK1 (antibody, human IgG1, kappa, V domains shown)
VH: QVTLKESGPVLVKPTETLTLTCTVSGIDLSHDDISWVRQAPGKGLEWVGIISYAGKKYYASWAKGRLTISKDTSKNQVVLTMTNMDPVDTATYYCARGVPAYSHGGDLWGQGTLVTVSS
VL: DIVMTQSPATLSLSPGERATLSCTSSQSVYHANWLSWFQQKPGQPPKLLIYWASTLAYGVPSRFSGSGSGTDFTLTISSLQPEDAATYYCAGGYGGGRYAFGQGTKVEIKR
notes: also called MS1032LO18-SG1
As to B1, the “ratio of KD at pH 5.8/pH7.4” value in test [1] stood at 229. Moreover, the equilibrium dissociation constant (Kd) was determined as 0.329 nM with human latent myostatin, 0.272 nM in the test with mouse latent myostatin, 80.9 nM in [2] and 0.354 nM in test [3].

B2: MST1572 (antibody, human IgG1, kappa, V domains shown)
VH: QSVEESGGRLVTPGTPLTLTCTVSGFSLSSYAMSWVRQAPGKGLEWIGIIYGVGSTYYASWAKGRFTISKTSTTVDLKIASPTTEDTATYFCARDDYGWGYTNLWGPGTLVTVSS
VL: QVLTQTPSSVSAAVGGTVTINCQSSQSVYNNNYLAWFQQKPGQPPKLLIYDASKLASGVPSRFKGSGSGTQFTLTISGVQCDDAATYYCQGSYYSSGWYRAFGGGTKVEIKR
In the case of B2, the binding result with GST-hMSTN 61-160aa, in the test with GST-hMSTN 81-180aa, in the test with GST-hMSTN 101-200aa, with GST-hMSTN 121-220aa and with GST-hMSTN 141-241aa was “no binding” in each case.

B3: MST1538 (antibody, human IgG1, kappa, V domains shown)
VH: QSLEESGGGLVKPGGTLTLTCKASGIDFSSYYYMCWVRQAPGKGLEWIACIYAGISGSTYYASWAKGRFTISKTSSTTVTLQMTSLTAADTATYFCARDPYHFDYGSLWGPGTLVTVSS
VL: ALVMTQTPASVSAAVGGTVTINCQASQSVYGGNELSWYQQEPGQPPKLLIYSASKLASGVPSRFKGSGSGTQFTLTISGVQCDDAAAYYCAGYRTYSDDDNAFGGGTKVEIKR
Consider B3, for which the binding result with GST-hMSTN 61-160aa, with GST-hMSTN 81-180aa, in the test with GST-hMSTN 101-200aa, in the test with GST-hMSTN 121-220aa and in the test with GST-hMSTN 141-241aa was “no binding” throughout.
